Assay [1] has as its target T1, recombinant mUHRF1 V1 (mouse, UniProt Q8VDF2 1-782).
T1 chain: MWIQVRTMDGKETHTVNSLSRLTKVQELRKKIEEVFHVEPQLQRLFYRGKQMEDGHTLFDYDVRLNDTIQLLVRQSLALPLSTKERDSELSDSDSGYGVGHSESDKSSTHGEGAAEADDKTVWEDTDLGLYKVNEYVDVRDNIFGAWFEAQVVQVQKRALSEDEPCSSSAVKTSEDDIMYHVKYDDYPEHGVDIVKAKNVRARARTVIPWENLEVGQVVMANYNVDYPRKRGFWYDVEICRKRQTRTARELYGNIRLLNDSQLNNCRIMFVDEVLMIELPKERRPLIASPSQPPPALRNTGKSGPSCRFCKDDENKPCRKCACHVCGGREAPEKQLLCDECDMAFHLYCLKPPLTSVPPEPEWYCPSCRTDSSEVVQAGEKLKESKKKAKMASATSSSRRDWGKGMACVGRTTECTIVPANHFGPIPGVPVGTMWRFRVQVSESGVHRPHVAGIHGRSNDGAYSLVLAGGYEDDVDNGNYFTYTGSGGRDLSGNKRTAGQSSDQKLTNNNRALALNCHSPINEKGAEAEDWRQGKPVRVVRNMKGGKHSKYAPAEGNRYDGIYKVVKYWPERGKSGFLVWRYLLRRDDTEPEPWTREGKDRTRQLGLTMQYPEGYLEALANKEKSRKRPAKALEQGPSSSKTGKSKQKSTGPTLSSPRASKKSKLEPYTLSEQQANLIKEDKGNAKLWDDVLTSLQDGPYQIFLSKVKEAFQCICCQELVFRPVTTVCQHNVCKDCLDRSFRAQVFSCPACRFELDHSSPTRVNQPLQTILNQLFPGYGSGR
The assay can be described thus: MST; + 100-fold molar excess PI5P.

In assay [2] the target is T2, recombinant mUHRF1 V2 (mouse).
T2 chain: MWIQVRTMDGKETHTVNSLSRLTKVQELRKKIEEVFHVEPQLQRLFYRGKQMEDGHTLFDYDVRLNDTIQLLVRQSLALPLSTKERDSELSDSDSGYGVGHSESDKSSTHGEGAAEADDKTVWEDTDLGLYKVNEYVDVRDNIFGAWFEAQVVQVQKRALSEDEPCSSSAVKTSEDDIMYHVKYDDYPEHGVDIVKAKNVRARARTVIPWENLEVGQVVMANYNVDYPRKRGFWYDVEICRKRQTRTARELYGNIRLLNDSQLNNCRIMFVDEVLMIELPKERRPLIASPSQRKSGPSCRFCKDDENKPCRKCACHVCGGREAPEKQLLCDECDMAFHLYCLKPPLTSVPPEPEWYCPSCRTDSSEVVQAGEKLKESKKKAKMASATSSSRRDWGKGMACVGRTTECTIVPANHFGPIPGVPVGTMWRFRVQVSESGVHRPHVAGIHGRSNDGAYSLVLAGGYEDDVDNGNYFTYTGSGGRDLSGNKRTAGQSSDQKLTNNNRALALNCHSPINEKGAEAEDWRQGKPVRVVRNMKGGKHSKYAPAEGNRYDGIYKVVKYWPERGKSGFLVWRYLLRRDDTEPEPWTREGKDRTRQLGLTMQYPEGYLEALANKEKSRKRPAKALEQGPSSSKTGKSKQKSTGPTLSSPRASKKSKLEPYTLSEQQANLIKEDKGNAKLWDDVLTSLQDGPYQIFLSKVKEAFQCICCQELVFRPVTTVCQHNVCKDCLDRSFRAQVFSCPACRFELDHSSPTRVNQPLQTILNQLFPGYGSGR
Nature of the assay: MST; + 100-fold molar excess PI5P.

Assay [3] addresses T3, recombinant hUHRF1 (human, UniProt Q96T88-1 1-793).
T3 chain: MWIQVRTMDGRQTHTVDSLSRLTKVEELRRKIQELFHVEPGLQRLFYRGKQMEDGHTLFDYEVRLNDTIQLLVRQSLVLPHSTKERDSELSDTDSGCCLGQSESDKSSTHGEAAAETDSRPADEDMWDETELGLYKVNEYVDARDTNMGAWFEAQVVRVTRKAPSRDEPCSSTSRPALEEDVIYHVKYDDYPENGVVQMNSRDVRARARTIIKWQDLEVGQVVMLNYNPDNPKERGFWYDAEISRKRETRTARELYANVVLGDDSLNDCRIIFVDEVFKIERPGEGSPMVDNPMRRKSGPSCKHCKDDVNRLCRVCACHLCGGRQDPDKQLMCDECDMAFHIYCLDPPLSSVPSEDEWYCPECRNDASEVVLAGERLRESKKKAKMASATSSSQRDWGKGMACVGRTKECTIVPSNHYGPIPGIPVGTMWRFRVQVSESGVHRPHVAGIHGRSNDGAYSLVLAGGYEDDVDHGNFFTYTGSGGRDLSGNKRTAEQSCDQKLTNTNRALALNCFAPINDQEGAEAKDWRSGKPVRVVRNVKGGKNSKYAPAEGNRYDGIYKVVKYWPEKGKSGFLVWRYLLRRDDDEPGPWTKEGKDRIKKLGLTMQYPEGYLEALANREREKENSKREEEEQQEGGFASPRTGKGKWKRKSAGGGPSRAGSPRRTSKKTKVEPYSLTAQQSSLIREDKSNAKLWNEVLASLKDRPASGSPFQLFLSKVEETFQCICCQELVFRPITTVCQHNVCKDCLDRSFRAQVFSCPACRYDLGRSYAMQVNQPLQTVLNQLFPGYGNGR
Nature of the assay: MST; + 100-fold molar excess PI5P.

The target in assay [4] is T1, recombinant mUHRF1 V1. Nature of the assay: MST.
Assay [5] concerns the target T2, recombinant mUHRF1 V2. Nature of the assay: MST.
The target in assay [6] is T3, recombinant hUHRF1. Nature of the assay: MST.

B1: H3K9me3 peptide (titrated in MST) (peptide)
chain: ARTKQTARKSTGGKA
modifications: trimethyl-lysine at K9
As usually defined, the Kd is the concentration at which binding is half-saturated. On to B1, for which the Kd in the assay with recombinant mUHRF1 V1 [1] was 2600 nM; in the assay with recombinant mUHRF1 V2 [2], 8100 nM; with recombinant hUHRF1 [3] it was 80 nM; with recombinant mUHRF1 V1 [4] it was 1400 nM; in the assay with recombinant mUHRF1 V2 [5] it was 4000 nM; with recombinant hUHRF1 [6] it was 1500 nM.

The values are drawn from article PMC7430637 (2020).
